{
  "source": "paper PMC7652416",
  "about": "“Structural basis of ClpXP recognition and unfolding of ssrA-tagged substrates” (eLife, 2020)",
  "proteins": {"B1": {"name": "E. coli ClpP (enzyme)", "chain": "not shown", "notes": "E. coli (strain K12) ClpP, UniProtKB P0A6G7; Double-ring tetradecamer of two heptameric rings; also called ClpP14; ClpP tetradecamer; source: recombinant (plasmid pT7 ClpP), purified as described (Kim et al., 2000; Bell et al., 2019); copies: 14"}},
  "target": "the molecule itself",
  "test": "cryo-EM structure; single-chain ClpX^∆N (4 µM), ClpP (1.8 µM), ATPγS (2.5 mM) in 20 mM HEPES pH 7.5, 100 mM KCl, 25 mM MgCl2, 5 min at 25°C; equal volume of GFP-G3YG9SENYALAA (20 µM) and ATP (2.5 mM) added; vitrified within 15 s of final mixing",
  "data": [
    {"protein": "B1", "values": [
      {"measurement": "stoichiometry N", "value": 14}
    ]}
  ]
}
